# Source: article PMC9482650, “Quantitative fragmentomics allow affinity mapping of interactomes” (Nature Communications, 2022)
# What was measured:
# Assay in all cases: holdup assay
# Parameters in all cases: key: below the threshold = too weak to quantify, mostly under pKd 3.1 to 4
# FRMPD3, Q5JV73 = molecular target: FRMPD3, Q5JV73
# NHERF2_2, Q15599 = molecular target: NHERF2_2, Q15599
# GRASP, Q7Z6J2 = molecular target: GRASP, Q7Z6J2
# IL16_4, Q14005 = molecular target: IL16_4, Q14005
# Inadl_9, Q8NI35 = molecular target: Inadl_9, Q8NI35
# Inadl_9, Q8NI35, sequence (Q8NI35 1530-1615): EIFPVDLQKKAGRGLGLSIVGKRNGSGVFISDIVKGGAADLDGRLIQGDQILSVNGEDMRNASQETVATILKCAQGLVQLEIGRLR
# NOS1, P29475 = molecular target: NOS1, P29475
# NOS1, P29475, sequence (P29475 9-101): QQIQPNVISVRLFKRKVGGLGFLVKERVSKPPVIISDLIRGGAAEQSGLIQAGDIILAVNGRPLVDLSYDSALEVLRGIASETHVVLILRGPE
# APBA3_1, O96018 = molecular target: T1, APBA3_1, O96018
# T1 sequence (O96018 389-490, limits assumed, looked up): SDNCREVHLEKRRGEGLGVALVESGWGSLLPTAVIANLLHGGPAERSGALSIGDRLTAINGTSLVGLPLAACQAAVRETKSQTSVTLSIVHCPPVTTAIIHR
# AHNAK1, Q09666 = molecular target: AHNAK1, Q09666
# AHNAK1, Q09666, sequence (Q09666 4-100): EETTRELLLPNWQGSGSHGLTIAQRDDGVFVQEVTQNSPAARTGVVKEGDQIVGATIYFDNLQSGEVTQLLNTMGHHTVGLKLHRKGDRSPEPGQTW
# NHERF4_1, Q86UT5-2 = molecular target: NHERF4_1, Q86UT5-2
# NHERF4_1, Q86UT5-2, sequence (Q86UT5 other isoform, or with tags, fused parts or gaps): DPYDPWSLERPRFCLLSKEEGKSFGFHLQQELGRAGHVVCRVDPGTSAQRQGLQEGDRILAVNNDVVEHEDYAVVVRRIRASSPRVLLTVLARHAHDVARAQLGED
# SNTG2, Q9NY99 = molecular target: T2, SNTG2, Q9NY99
# T2 sequence (Q9NY99 68-166, limits assumed, looked up): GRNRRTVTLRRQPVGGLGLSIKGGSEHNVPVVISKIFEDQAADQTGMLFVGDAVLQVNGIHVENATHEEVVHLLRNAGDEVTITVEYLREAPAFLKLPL
# MAST1, Q9Y2H9 = molecular target: MAST1, Q9Y2H9
# MAST1, Q9Y2H9, sequence (Q9Y2H9 962-1065): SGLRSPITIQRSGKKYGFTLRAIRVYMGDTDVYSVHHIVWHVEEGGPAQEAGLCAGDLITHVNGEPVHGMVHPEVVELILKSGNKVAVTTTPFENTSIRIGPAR
# Inadl_2, Q8NI35 = molecular target: Inadl_2, Q8NI35
# Inadl_2, Q8NI35, sequence (Q8NI35 238-335): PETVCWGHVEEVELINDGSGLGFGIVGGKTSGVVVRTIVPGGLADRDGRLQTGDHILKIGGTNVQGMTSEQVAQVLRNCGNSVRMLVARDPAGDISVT
# SNX27, Q96L92 = molecular target: SNX27, Q96L92
# PARD3B_1, Q8TEW8 = molecular target: T3, PARD3B_1, Q8TEW8
# T3 sequence (Q8TEW8 196-299, limits assumed, looked up): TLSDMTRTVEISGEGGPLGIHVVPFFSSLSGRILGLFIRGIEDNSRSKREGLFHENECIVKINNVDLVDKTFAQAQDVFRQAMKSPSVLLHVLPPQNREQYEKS
# SYNJ2BP, P57105 = molecular target: T4, SYNJ2BP, P57105
# T4 sequence (P57105 8-110, limits assumed, looked up): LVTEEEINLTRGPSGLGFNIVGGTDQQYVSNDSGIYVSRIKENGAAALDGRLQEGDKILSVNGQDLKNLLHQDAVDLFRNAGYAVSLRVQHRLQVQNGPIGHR
# LRRC7, Q96NW7 = molecular target: T5, LRRC7, Q96NW7
# T5 sequence (Q96NW7 1440-1537, limits assumed, looked up): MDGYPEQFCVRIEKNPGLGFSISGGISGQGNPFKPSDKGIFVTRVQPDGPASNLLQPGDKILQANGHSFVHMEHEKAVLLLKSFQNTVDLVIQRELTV
# MAGI1_2, Q96QZ7 = molecular target: MAGI1_2, Q96QZ7
# MAGI1_2, Q96QZ7, sequence (Q96QZ7 456-580): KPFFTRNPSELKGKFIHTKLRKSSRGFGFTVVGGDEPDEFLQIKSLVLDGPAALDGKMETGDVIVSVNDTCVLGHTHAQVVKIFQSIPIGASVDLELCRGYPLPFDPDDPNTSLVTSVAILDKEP
# PARD3_3, Q8TEW0 = molecular target: PARD3_3, Q8TEW0
# PARD3_3, Q8TEW0, sequence (Q8TEW0 582-685): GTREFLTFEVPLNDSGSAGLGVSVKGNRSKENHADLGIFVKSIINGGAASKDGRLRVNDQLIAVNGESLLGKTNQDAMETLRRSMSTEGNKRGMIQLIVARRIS
# Inadl_6, Q8NI35 = molecular target: Inadl_6, Q8NI35
# Inadl_6, Q8NI35, sequence (Q8NI35 1058-1167): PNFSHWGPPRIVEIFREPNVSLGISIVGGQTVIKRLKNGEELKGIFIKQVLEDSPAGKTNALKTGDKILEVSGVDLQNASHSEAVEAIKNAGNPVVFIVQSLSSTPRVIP
# LIN7B, Q9HAP6 = molecular target: T6, LIN7B, Q9HAP6
# T6 sequence (Q9HAP6 88-185, limits assumed, looked up): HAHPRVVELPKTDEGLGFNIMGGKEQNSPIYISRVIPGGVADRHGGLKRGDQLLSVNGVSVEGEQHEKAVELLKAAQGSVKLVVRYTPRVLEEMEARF
# DLG3_3, Q92796 = molecular target: T7, DLG3_3, Q92796
# T7 sequence (Q92796 374-475, limits assumed, looked up): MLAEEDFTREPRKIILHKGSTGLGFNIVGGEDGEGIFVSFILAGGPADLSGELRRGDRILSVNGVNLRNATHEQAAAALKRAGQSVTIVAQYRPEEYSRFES
# MPDZ_10, O75970 = molecular target: T8, MPDZ_10, O75970
# T8 sequence (O75970 1624-1722, limits assumed, looked up): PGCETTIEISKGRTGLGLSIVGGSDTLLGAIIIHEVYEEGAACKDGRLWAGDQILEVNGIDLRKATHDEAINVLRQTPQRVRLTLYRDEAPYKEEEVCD
# DLG5_1, Q8TDM6 = molecular target: DLG5_1, Q8TDM6
# DLG5_1, Q8TDM6, sequence (Q8TDM6 617-713): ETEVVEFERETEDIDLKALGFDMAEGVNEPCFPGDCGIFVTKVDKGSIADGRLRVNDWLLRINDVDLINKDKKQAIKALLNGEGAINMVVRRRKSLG
# RADIL, Q96JH8 = molecular target: T9, RADIL, Q96JH8
# T9 sequence (Q96JH8 971-1071, limits assumed, looked up): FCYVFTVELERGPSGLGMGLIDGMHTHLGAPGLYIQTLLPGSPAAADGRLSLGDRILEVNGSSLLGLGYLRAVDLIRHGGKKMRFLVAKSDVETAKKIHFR
# TJP2_1, Q9UDY2 = molecular target: TJP2_1, Q9UDY2
# TJP2_1, Q9UDY2, sequence (Q9UDY2 24-128): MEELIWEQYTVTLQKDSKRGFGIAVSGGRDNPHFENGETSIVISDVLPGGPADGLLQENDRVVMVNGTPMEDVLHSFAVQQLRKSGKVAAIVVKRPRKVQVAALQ
# DLG1_3, Q12959 = molecular target: DLG1_3, Q12959
# DLG1_3, Q12959, sequence (Q12959 457-571): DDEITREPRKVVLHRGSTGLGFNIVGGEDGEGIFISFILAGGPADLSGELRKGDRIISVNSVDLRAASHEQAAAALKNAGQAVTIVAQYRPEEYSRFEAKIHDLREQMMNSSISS
# MPP6, Q9NZW5 = molecular target: T10, MPP6, Q9NZW5
# T10 sequence (Q9NZW5 125-219, limits assumed, looked up): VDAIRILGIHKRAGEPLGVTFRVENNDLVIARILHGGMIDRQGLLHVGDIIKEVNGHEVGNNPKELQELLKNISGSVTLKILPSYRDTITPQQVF
# DLG4_3, P78352 = molecular target: DLG4_3, P78352
# DLG4_3, P78352, sequence (P78352 306-403): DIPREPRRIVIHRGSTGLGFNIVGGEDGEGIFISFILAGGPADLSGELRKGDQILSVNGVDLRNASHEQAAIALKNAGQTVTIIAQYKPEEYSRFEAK
# [1] = plain residues with an end cap or a label only (N-terminal biotin on a linker: ahx)
# [2] = plain residues with an end cap or a label only (N-terminal biotin on a linker: (peg)3)
# [3] = plain residues with an end cap or a label only (N-terminal biotin on a linker: ado-ado)
# IL16_4, Q14005, sequence (Q14005 1229-1329): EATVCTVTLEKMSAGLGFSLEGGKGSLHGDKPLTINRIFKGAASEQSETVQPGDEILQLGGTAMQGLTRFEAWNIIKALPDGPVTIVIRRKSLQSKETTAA
# FRMPD3, Q5JV73, sequence (Q5JV73 12-100): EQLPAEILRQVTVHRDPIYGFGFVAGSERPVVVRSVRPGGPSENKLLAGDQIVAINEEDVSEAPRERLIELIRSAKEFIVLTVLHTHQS
# GRASP, Q7Z6J2, sequence (Q7Z6J2 96-193): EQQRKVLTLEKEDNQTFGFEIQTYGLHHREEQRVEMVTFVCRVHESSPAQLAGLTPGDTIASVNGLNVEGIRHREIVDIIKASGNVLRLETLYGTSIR
# NHERF2_2, Q15599, sequence (Q15599 142-238): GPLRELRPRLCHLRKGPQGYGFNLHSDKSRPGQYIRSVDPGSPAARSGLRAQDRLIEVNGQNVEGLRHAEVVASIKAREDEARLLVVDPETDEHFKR
binder,measurement,setting,value
"QDEKVKESYV [ABCA1, O95477]",pKd,"FRMPD3, Q5JV73; [1]",below the threshold
same,pKd,"NHERF2_2, Q15599; [1]",3.64
same,pKd,"GRASP, Q7Z6J2; [1]",3.57
same,pKd,"IL16_4, Q14005; [1]",below the threshold
same,pKd,"Inadl_9, Q8NI35; [1]",4.29
same,pKd,"NOS1, P29475; [1]",3.66
same,pKd,"APBA3_1, O96018; [1]",below the threshold
same,pKd,"AHNAK1, Q09666; [1]",below the threshold
same,pKd,"NHERF4_1, Q86UT5-2; [1]",3.48
same,pKd,"SNTG2, Q9NY99; [1]",5.06
same,pKd,"MAST1, Q9Y2H9; [1]",4.16
same,pKd,"Inadl_2, Q8NI35; [1]",3.93
same,pKd,"SNX27, Q96L92; [1]",5.63
same,pKd,"PARD3B_1, Q8TEW8; [1]",below the threshold
same,pKd,"SYNJ2BP, P57105; [1]",5.22
same,pKd,"LRRC7, Q96NW7; [1]",4.13
same,pKd,"MAGI1_2, Q96QZ7; [1]",4.03
same,pKd,"PARD3_3, Q8TEW0; [1]",below the threshold
same,pKd,"Inadl_6, Q8NI35; [1]",4.29
same,pKd,"LIN7B, Q9HAP6; [1]",4.15
same,pKd,"DLG3_3, Q92796; [1]",3.97
same,pKd,"MPDZ_10, O75970; [1]",4.29
same,pKd,"DLG5_1, Q8TDM6; [1]",below the threshold
same,pKd,"RADIL, Q96JH8; [1]",4.89
same,pKd,"TJP2_1, Q9UDY2; [1]",4.36
same,pKd,"DLG1_3, Q12959; [1]",3.76
same,pKd,"MPP6, Q9NZW5; [1]",below the threshold
same,pKd,"DLG4_3, P78352; [1]",3.78
"RYEDTTLVEDTVL [WNV-NS5, Q9Q6P4]",pKd,"FRMPD3, Q5JV73; [2]",3.88
same,pKd,"NHERF2_2, Q15599; [2]",4.89
same,pKd,"GRASP, Q7Z6J2; [2]",3.9
same,pKd,"IL16_4, Q14005; [2]",3.56
same,pKd,"Inadl_9, Q8NI35; [2]",below the threshold
same,pKd,"NOS1, P29475; [2]",3.64
same,pKd,"APBA3_1, O96018; [2]",below the threshold
same,pKd,"AHNAK1, Q09666; [2]",below the threshold
same,pKd,"NHERF4_1, Q86UT5-2; [2]",4.17
same,pKd,"SNTG2, Q9NY99; [2]",4
same,pKd,"MAST1, Q9Y2H9; [2]",4.3
same,pKd,"Inadl_2, Q8NI35; [2]",below the threshold
same,pKd,"SNX27, Q96L92; [2]",5.38
same,pKd,"PARD3B_1, Q8TEW8; [2]",4.66
same,pKd,"SYNJ2BP, P57105; [2]",3.66
same,pKd,"LRRC7, Q96NW7; [2]",3.49
same,pKd,"MAGI1_2, Q96QZ7; [2]",below the threshold
same,pKd,"PARD3_3, Q8TEW0; [2]",4.53
same,pKd,"Inadl_6, Q8NI35; [2]",below the threshold
same,pKd,"LIN7B, Q9HAP6; [2]",below the threshold
same,pKd,"DLG3_3, Q92796; [2]",below the threshold
same,pKd,"MPDZ_10, O75970; [2]",below the threshold
same,pKd,"DLG5_1, Q8TDM6; [2]",below the threshold
same,pKd,"RADIL, Q96JH8; [2]",below the threshold
same,pKd,"TJP2_1, Q9UDY2; [2]",below the threshold
same,pKd,"DLG1_3, Q12959; [2]",3.51
same,pKd,"MPP6, Q9NZW5; [2]",below the threshold
same,pKd,"DLG4_3, P78352; [2]",below the threshold
"NISYRRESAI [KCNJ4, P48050]",pKd,"FRMPD3, Q5JV73; [3]",below the threshold
same,pKd,"NHERF2_2, Q15599; [3]",below the threshold
same,pKd,"GRASP, Q7Z6J2; [3]",below the threshold
same,pKd,"IL16_4, Q14005; [3]",below the threshold
same,pKd,"Inadl_9, Q8NI35; [3]",below the threshold
same,pKd,"NOS1, P29475; [3]",3.62
same,pKd,"APBA3_1, O96018; [3]",below the threshold
same,pKd,"AHNAK1, Q09666; [3]",below the threshold
same,pKd,"NHERF4_1, Q86UT5-2; [3]",3.48
same,pKd,"SNTG2, Q9NY99; [3]",below the threshold
same,pKd,"MAST1, Q9Y2H9; [3]",4.06
same,pKd,"Inadl_2, Q8NI35; [3]",below the threshold
same,pKd,"SNX27, Q96L92; [3]",below the threshold
same,pKd,"PARD3B_1, Q8TEW8; [3]",below the threshold
same,pKd,"SYNJ2BP, P57105; [3]",4.84
same,pKd,"LRRC7, Q96NW7; [3]",below the threshold
same,pKd,"MAGI1_2, Q96QZ7; [3]",3.89
same,pKd,"PARD3_3, Q8TEW0; [3]",below the threshold
same,pKd,"Inadl_6, Q8NI35; [3]",below the threshold
same,pKd,"LIN7B, Q9HAP6; [3]",3.74
same,pKd,"DLG3_3, Q92796; [3]",3.98
same,pKd,"MPDZ_10, O75970; [3]",below the threshold
same,pKd,"DLG5_1, Q8TDM6; [3]",below the threshold
same,pKd,"RADIL, Q96JH8; [3]",below the threshold
same,pKd,"TJP2_1, Q9UDY2; [3]",below the threshold
same,pKd,"DLG1_3, Q12959; [3]",3.91
same,pKd,"MPP6, Q9NZW5; [3]",below the threshold
same,pKd,"DLG4_3, P78352; [3]",4.12
"QPRTWLQSPV [RTKN, Q9BST9]",pKd,"FRMPD3, Q5JV73; [1]",below the threshold
same,pKd,"NHERF2_2, Q15599; [1]",below the threshold
same,pKd,"GRASP, Q7Z6J2; [1]",3.9
same,pKd,"IL16_4, Q14005; [1]",below the threshold
same,pKd,"Inadl_9, Q8NI35; [1]",below the threshold
same,pKd,"NOS1, P29475; [1]",3.6
same,pKd,"APBA3_1, O96018; [1]",below the threshold
same,pKd,"AHNAK1, Q09666; [1]",below the threshold
same,pKd,"NHERF4_1, Q86UT5-2; [1]",below the threshold
same,pKd,"SNTG2, Q9NY99; [1]",below the threshold
same,pKd,"MAST1, Q9Y2H9; [1]",3.85
same,pKd,"Inadl_2, Q8NI35; [1]",below the threshold
same,pKd,"SNX27, Q96L92; [1]",4.31
same,pKd,"PARD3B_1, Q8TEW8; [1]",below the threshold
same,pKd,"SYNJ2BP, P57105; [1]",5.2
same,pKd,"LRRC7, Q96NW7; [1]",3.73
same,pKd,"MAGI1_2, Q96QZ7; [1]",4.83
same,pKd,"PARD3_3, Q8TEW0; [1]",below the threshold
same,pKd,"Inadl_6, Q8NI35; [1]",below the threshold
same,pKd,"LIN7B, Q9HAP6; [1]",below the threshold
same,pKd,"DLG3_3, Q92796; [1]",4.41
same,pKd,"MPDZ_10, O75970; [1]",3.97
same,pKd,"DLG5_1, Q8TDM6; [1]",below the threshold
same,pKd,"RADIL, Q96JH8; [1]",below the threshold
same,pKd,"TJP2_1, Q9UDY2; [1]",below the threshold
same,pKd,"DLG1_3, Q12959; [1]",4.11
same,pKd,"MPP6, Q9NZW5; [1]",below the threshold
same,pKd,"DLG4_3, P78352; [1]",4.35
